Laboratory results published in PMC12304082.

Target: MtrC_(DI,II,memb), lipid-anchored truncated MtrC comprised only of domains I and II (Shewanella oneidensis MR-1) (UniProt Q8EG34)

soluble OmcA (from UniProt Q8EG33 1-735) (natural protein)
rate of reduction of 700 nM soluble OmcA by whole S. oneidensis ΔmtrC/omcA cells producing MtrC (DI,II)AB, against S. oneidensis MR-1 (fold lower rate): 4
